According to the supplement of paper PMC10567573:

B1: KLHL12 (parent)
chain: REESLPNLLQYVRMPLLTPRYITD
B2: TRIM55 (parent)
chain: FQMEKIEHGYENMNHFTVNLNREE

Variants of: B1
Test: protein stability index of a GFP-peptide fusion (GPS, HEK-293T) (PSI 1-6); higher = more stable
Settings: c terminus: a fixed tail appended
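Also: lentivirally expressed fusions sorted by FACS into six bins by GFP to DsRed ratio, PSI derived from sequencing read proportions per bin multiplied by bin number.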

Variant	protein stability index
RTESLPNLLQYVRMPLLTPRYITD [E2T]	3.35
RKESLPNLLQYVRMPLLTPRYITD [E2K]	2.31
RLESLPNLLQYVRMPLLTPRYITD [E2L]	2.47
RHESLPNLLQYVRMPLLTPRYITD [E2H]	2.92
RVESLPNLLQYVRMPLLTPRYITD [E2V]	2.63
RNESLPNLLQYVRMPLLTPRYITD [E2N]	2.51
RPESLPNLLQYVRMPLLTPRYITD [E2P]	2.56
RIESLPNLLQYVRMPLLTPRYITD [E2I]	2.5
RRESLPNLLQYVRMPLLTPRYITD [E2R]	2.85
RCESLPNLLQYVRMPLLTPRYITD [E2C]	3.52
RGESLPNLLQYVRMPLLTPRYITD [E2G]	3.19
RSESLPNLLQYVRMPLLTPRYITD [E2S]	3.42
RYESLPNLLQYVRMPLLTPRYITD [E2Y]	2.83
RFESLPNLLQYVRMPLLTPRYITD [E2F]	2.4
RDESLPNLLQYVRMPLLTPRYITD [E2D]	2.38
RQESLPNLLQYVRMPLLTPRYITD [E2Q]	2.53
RMESLPNLLQYVRMPLLTPRYITD [E2M]	2.4
RAESLPNLLQYVRMPLLTPRYITD [E2A]	3.56
RWESLPNLLQYVRMPLLTPRYITD [E2W]	3.14
WEESLPNLLQYVRMPLLTPRYITD [R1W]	1.61
LEESLPNLLQYVRMPLLTPRYITD [R1L]	2.83

Variant	protein stability index
QEESLPNLLQYVRMPLLTPRYITD [R1Q]	2.31
DEESLPNLLQYVRMPLLTPRYITD [R1D]	2.63
KEESLPNLLQYVRMPLLTPRYITD [R1K]	2.52
TEESLPNLLQYVRMPLLTPRYITD [R1T]	2.19
GEESLPNLLQYVRMPLLTPRYITD [R1G]	2.23
CEESLPNLLQYVRMPLLTPRYITD [R1C]	1.96
AEESLPNLLQYVRMPLLTPRYITD [R1A]	2.23
IEESLPNLLQYVRMPLLTPRYITD [R1I]	1.83
VEESLPNLLQYVRMPLLTPRYITD [R1V]	2.35
NEESLPNLLQYVRMPLLTPRYITD [R1N]	2.72
MEESLPNLLQYVRMPLLTPRYITD [R1M]	2.25
HEESLPNLLQYVRMPLLTPRYITD [R1H]	2.18
PEESLPNLLQYVRMPLLTPRYITD [R1P]	2.16
FEESLPNLLQYVRMPLLTPRYITD [R1F]	2.43
SEESLPNLLQYVRMPLLTPRYITD [R1S]	2.7
EEESLPNLLQYVRMPLLTPRYITD [R1E]	2.8
YEESLPNLLQYVRMPLLTPRYITD [R1Y]	1.82
REDSLPNLLQYVRMPLLTPRYITD [E3D]	2.2
RECSLPNLLQYVRMPLLTPRYITD [E3C]	2.5
REASLPNLLQYVRMPLLTPRYITD [E3A]	2.54
REFSLPNLLQYVRMPLLTPRYITD [E3F]	1.95

Variants of: B2
Test: as above
Settings: c terminus: a fixed tail appended

Variant	protein stability index
FQMEKIEHGYENMNHFTGNLNREE [V18G]	3.74
FQMEKIEHGYENMNHFTNNLNREE [V18N]	3.52
FQMEKIEHGYENMNHFTSNLNREE [V18S]	3.77
FQMEKIEHGYENMNHFTINLNREE [V18I]	2.94
FQMEKIEHGYENMNHFTENLNREE [V18E]	3.61
FQMEKIEHGYENMNHFTKNLNREE [V18K]	3.27
FQMEKIEHGYENMNHFTTNLNREE [V18T]	3.86
FQMEKIEHGYENMNHFTQNLNREE [V18Q]	4.15
FQMEKIEHGYENMNHFTDNLNREE [V18D]	3.94
FQMEKIEHGYENMNHFTPNLNREE [V18P]	2.11
FQMEKIEHGYENMNHFTWNLNREE [V18W]	1.69
FQMEKIEHGYENMNHFTRNLNREE [V18R]	3.73
FQMEKIEHGYENMNHFTCNLNREE [V18C]	2.03
FQMEKIEHGYENMNHFTFNLNREE [V18F]	3.21
FQMEKIEHGYENMNHFTANLNREE [V18A]	3.24
FQMEKIEHGYENMNHFTHNLNREE [V18H]	3.66
FQMEKIEHGYENMNHFTYNLNREE [V18Y]	2.39
FQMEKIEHGYENMNHFTMNLNREE [V18M]	3.49
FQMEKIEHGYENMNHFTLNLNREE [V18L]	3.08
FQMEKIEHGYENMNHFTVNLNSEE [R22S]	3
FQMEKIEHGYENMNHFTVNLNMEE [R22M]	2.44
FQMEKIEHGYENMNHFTVNLNEEE [R22E]	3.77
FQMEKIEHGYENMNHFTVNLNCEE [R22C]	3.09
FQMEKIEHGYENMNHFTVNLNVEE [R22V]	2.56
FQMEKIEHGYENMNHFTVNLNFEE [R22F]	1.98

Variant	protein stability index
FQMEKIEHGYENMNHFTVNLNYEE [R22Y]	2.31
FQMEKIEHGYENMNHFTVNLNNEE [R22N]	3.57
FQMEKIEHGYENMNHFTVNLNGEE [R22G]	2.67
FQMEKIEHGYENMNHFTVNLNTEE [R22T]	2.99
FQMEKIEHGYENMNHFTVNLNKEE [R22K]	3.75
FQMEKIEHGYENMNHFTVNLNHEE [R22H]	2.64
FQMEKIEHGYENMNHFTVNLNAEE [R22A]	2.73
FQMEKIEHGYENMNHFTVNLNLEE [R22L]	1.96
FQMEKIEHGYENMNHFTVNLNWEE [R22W]	2.59
FQMEKIEHGYENMNHFTVNLNIEE [R22I]	2.4
FQMEKIEHGYENMNHFTVNLNQEE [R22Q]	3.1
FQMEKIEHGYENMNHFTVNLNPEE [R22P]	2.99
FQMEKIEHGYENMNHFTVNLNDEE [R22D]	3.32
FQMEKIEHGYENMNHFTVRLNREE [N19R]	2.4
FQMEKIEHGYENMNHFTVPLNREE [N19P]	3.4
FQMEKIEHGYENMNHFTVDLNREE [N19D]	3.37
FQMEKIEHGYENMNHFTVTLNREE [N19T]	2.27
FQMEKIEHGYENMNHFTVYLNREE [N19Y]	1.86
FQMEKIEHGYENMNHFTVKLNREE [N19K]	2.47
FQMEKIEHGYENMNHFTVWLNREE [N19W]	2.09
FQMEKIEHGYENMNHFTVLLNREE [N19L]	2.22
FQMEKIEHGYENMNHFTVMLNREE [N19M]	2.27
FQMEKIEHGYENMNHFTVELNREE [N19E]	3.28
FQMEKIEHGYENMNHFTVILNREE [N19I]	2.05
FQMEKIEHGYENMNHFTVHLNREE [N19H]	2.24

Variant	protein stability index
FQMEKIEHGYENMNHFTVCLNREE [N19C]	2.65
FQMEKIEHGYENMNHFTVFLNREE [N19F]	2.29
FQMEKIEHGYENMNHFTVSLNREE [N19S]	2.16
FQMEKIEHGYENMNHFTVQLNREE [N19Q]	2.68
FQMEKIEHGYENMNHFTVVLNREE [N19V]	2.29
FQMEKIEHGYENMNHFTVGLNREE [N19G]	2.72
FQMEKIEHGYENMNHFTVALNREE [N19A]	3.17
FQMEKIEHGYENMNHFTVNLNREM [E24M]	1.57
FQMEKIEHGYENMNHFTVNLNREN [E24N]	2.33
FQMEKIEHGYENMNHFTVNLNRES [E24S]	2.06
FQMEKIEHGYENMNHFTVNLNREC [E24C]	2.4
FQMEKIEHGYENMNHFTVNLNREA [E24A]	2.27
FQMEKIEHGYENMNHFTVNLNREV [E24V]	2.49
FQMEKIEHGYENMNHFTVNLNREP [E24P]	2.37
FQMEKIEHGYENMNHFTVNLNREQ [E24Q]	3
FQMEKIEHGYENMNHFTVNLNREL [E24L]	3.02
FQMEKIEHGYENMNHFTVNLNREK [E24K]	2.57
FQMEKIEHGYENMNHFTVNLNREF [E24F]	1.77
FQMEKIEHGYENMNHFTVNLNRER [E24R]	3.3
FQMEKIEHGYENMNHFTVNLNREW [E24W]	2.1
FQMEKIEHGYENMNHFTVNLNREY [E24Y]	1.57
FQMEKIEHGYENMNHFTVNLNREH [E24H]	2.43
FQMEKIEHGYENMNHFTVNLNREG [E24G]	1.97
FQMEKIEHGYENMNHFTVNLNREI [E24I]	1.98
FQMEKIEHGYENMNHFTVNLNRED [E24D]	2.77

Variant	protein stability index
FQMEKIEHGYENMNHFTVNLNRET [E24T]	2.12
FQMEKIEHGYENMNHFTVNANREE [L20A]	3.2
FQMEKIEHGYENMNHFTVNRNREE [L20R]	3.01
FQMEKIEHGYENMNHFTVNINREE [L20I]	2.64
FQMEKIEHGYENMNHFTVNDNREE [L20D]	3.47
FQMEKIEHGYENMNHFTVNHNREE [L20H]	3.23
FQMEKIEHGYENMNHFTVNYNREE [L20Y]	2.42
FQMEKIEHGYENMNHFTVNQNREE [L20Q]	3.33
FQMEKIEHGYENMNHFTVNMNREE [L20M]	2.51
FQMEKIEHGYENMNHFTVNFNREE [L20F]	2.71
FQMEKIEHGYENMNHFTVNCNREE [L20C]	2.33
FQMEKIEHGYENMNHFTVNPNREE [L20P]	2.88
FQMEKIEHGYENMNHFTVNNNREE [L20N]	3.5
FQMEKIEHGYENMNHFTVNGNREE [L20G]	3.43
FQMEKIEHGYENMNHFTVNKNREE [L20K]	3.04
FQMEKIEHGYENMNHFTVNSNREE [L20S]	3.2
FQMEKIEHGYENMNHFTVNWNREE [L20W]	2.35
FQMEKIEHGYENMNHFTVNENREE [L20E]	3.53
FQMEKIEHGYENMNHFTVNTNREE [L20T]	2.7
FQMEKIEHGYENMNHFTVNVNREE [L20V]	1.91
FQMEKIEHGYENMNHFGVNLNREE [T17G]	2.86
FQMEKIEHGYENMNHFPVNLNREE [T17P]	3.7
FQMEKIEHGYENMNHFKVNLNREE [T17K]	3.31
FQMEKIEHGYENMNHFSVNLNREE [T17S]	3.03
FQMEKIEHGYENMNHFNVNLNREE [T17N]	3.76

Variant	protein stability index
FQMEKIEHGYENMNHFQVNLNREE [T17Q]	3.75
FQMEKIEHGYENMNHFVVNLNREE [T17V]	2.25
FQMEKIEHGYENMNHFMVNLNREE [T17M]	2.77
FQMEKIEHGYENMNHFYVNLNREE [T17Y]	1.92
FQMEKIEHGYENMNHFRVNLNREE [T17R]	3.1
FQMEKIEHGYENMNHFWVNLNREE [T17W]	1.93
FQMEKIEHGYENMNHFHVNLNREE [T17H]	3.4
FQMEKIEHGYENMNHFLVNLNREE [T17L]	2.31
FQMEKIEHGYENMNHFIVNLNREE [T17I]	2.06
FQMEKIEHGYENMNHFTVNLGREE [N21G]	2.86
FQMEKIEHGYENMNHFTVNLLREE [N21L]	2.2
FQMEKIEHGYENMNHFTVNLTREE [N21T]	2.65
FQMEKIEHGYENMNHFTVNLFREE [N21F]	2.07
FQMEKIEHGYENMNHFTVNLAREE [N21A]	2.89
FQMEKIEHGYENMNHFTVNLKREE [N21K]	2.87
FQMEKIEHGYENMNHFTVNLQREE [N21Q]	3.07
FQMEKIEHGYENMNHFTVNLMREE [N21M]	2.1
FQMEKIEHGYENMNHFTVNLDREE [N21D]	3.65
FQMEKIEHGYENMNHFTVNLVREE [N21V]	2.4
FQMEKIEHGYENMNHFTVNLWREE [N21W]	1.13
FQMEKIEHGYENMNHFTVNLRREE [N21R]	2.51
FQMEKIEHGYENMNHFTVNLHREE [N21H]	2.15
FQMEKIEHGYENMNHFTVNLCREE [N21C]	1.82
FQMEKIEHGYENMNHFTVNLYREE [N21Y]	2.5
FQMEKIEHGYENMNHFTVNLEREE [N21E]	3.54

Variant	protein stability index
FQMEKIEHGYENMNHFTVNLPREE [N21P]	2.94
FQMEKIEHGYENMNHFTVNLIREE [N21I]	2.59
FQMEKIEHGYENMNHFTVNLSREE [N21S]	3.08
FQMEKIEHGYENMNHFTVNLNRHE [E23H]	1.77
FQMEKIEHGYENMNHFTVNLNRLE [E23L]	2.17
FQMEKIEHGYENMNHFTVNLNRTE [E23T]	1.92
FQMEKIEHGYENMNHFTVNLNRCE [E23C]	1.67
FQMEKIEHGYENMNHFTVNLNRIE [E23I]	1.64
FQMEKIEHGYENMNHFTVNLNRVE [E23V]	2.62
FQMEKIEHGYENMNHFTVNLNRDE [E23D]	3.09
FQMEKIEHGYENMNHFTVNLNRFE [E23F]	1.88
FQMEKIEHGYENMNHFTVNLNRNE [E23N]	2.87
FQMEKIEHGYENMNHFTVNLNRRE [E23R]	1.88
FQMEKIEHGYENMNHFTVNLNRQE [E23Q]	2.39
FQMEKIEHGYENMNHFTVNLNRAE [E23A]	1.77
FQMEKIEHGYENMNHFTVNLNRPE [E23P]	2.29
FQMEKIEHGYENMNHFTVNLNRSE [E23S]	2.67
FQMEKIEHGYENMNHFTVNLNRME [E23M]	2.27
FQMEKIEHGYENMNHFTVNLNRKE [E23K]	2.26
FQMEKIEHGYENMNHFTVNLNRYE [E23Y]	2.23
FQMEKIEHGYENMNHFTVNLNRGE [E23G]	2.28
